{"source": "paper PMC12855180", "about": "(Nature Communications, 2025)", "molecules": {"B1": {"name": "full-length FliD, as in the fusion constructs (natural protein)", "chain": "MASISSLGVGSNLPLDQLLTDLTKNEKGRLTPITKQQSANSAKLTAYGTLKSALEKFQTANTALNKADLFKSTVASSTTEDLKVSTTAGAAAGTYKINVTQLAAAQSLATKTTFATTKEQLGDTSVTSRTIKIEQPGRKEPLEIKLDKGDTSMEAIRDAINDADSGIAASIVKVKENEFQLVLTANSGTDNTMKITVEGDTKLNDLLAYDSTTNTGNMQELVKAENAKLNVNGIDIERQSNTVTDAPQGITLTLTKKVTDATVTVTKDDTKAKEAIKSWVDAYNSLVDTFSSLTKYTAVEPGEEASDKNGALLGDSVVRTIQTGIRAQFANSGSNSAFKTMAEIGITQDGTSGKLKIDDDKLTKVLKDNTAAARELLVGDGKETGITTKIATEVKSYLADDGIIDNAQDNVNATLKSLTKQYLSVSNSIDETVARYKAQFTQLDTMMSKLNNTSSYLTQQFTAMNKS"}}, "key": {"[1]": {"target": "FliD D1 domain (FliD^d1) (Salmonella enterica serovar Typhimurium) (UniProt P16328)", "test": "NMR titration"}, "cryo-EM structure [2]": {"target": "the molecule itself", "test": "cryo-EM structure"}, "cryo-EM structure [3]": {"target": "the molecule itself", "test": "cryo-EM structure", "remark": "listed apart in the source"}, "cryo-EM structure [4]": {"target": "the molecule itself", "test": "cryo-EM structure", "remark": "listed apart in the source"}, "cross-linking": {"target": "the molecule itself", "test": "cross-linking"}, "cryo-EM structure [5]": {"target": "the molecule itself", "test": "cryo-EM structure", "remark": "listed apart in the source"}, "[6]": {"target": "B1", "test": "cryo-EM structure"}, "[7]": {"target": "FliD D1 domain (FliD^d1) (Salmonella enterica serovar Typhimurium) (UniProt P16328)", "test": "NMR titration", "remark": "listed apart in the source"}}, "note": "Read-outs that look alike come from different tables or passages of the source.", "data": [{"molecule": "FliC, flagellin (unlabeled, for NMR titration) (from UniProt P06179 1-495) (natural protein)", "values": [{"measurement": "Kd", "setting": "[1]", "result": 1650, "unit": "µM"}, {"measurement": "stoichiometry N", "setting": "[1]", "result": 1}]}, {"molecule": "B1", "values": [{"measurement": "stoichiometry N", "setting": "cryo-EM structure [2]", "result": 10}, {"measurement": "stoichiometry N", "setting": "cryo-EM structure [3]", "result": 5}]}, {"molecule": "native FliD of the flagellar tip (natural protein) MASISSLGVGSNLPLDQLLTDLTKNEKGRLTPITKQQSANSAKLTAYGTLKSALEKFQTANTALNKADLFKSTVASSTTEDLKVSTTAGAAAGTYKINVTQLAAAQSLATKTTFATTKEQLGDTSVTSRTIKIEQPGRKEPLEIKLDKGDTSMEAIRDAINDADSGIAASIVKVKENEFQLVLTANSGTDNTMKITVEGDTKLNDLLAYDSTTNTGNMQELVKAENAKLNVNGIDIERQSNTVTDAPQGITLTLTKKVTDATVTVTKDDTKAKEAIKSWVDAYNSLVDTFSSLTKYTAVEPGEEASDKNGALLGDSVVRTIQTGIRAQFANSGSNSAFKTMAEIGITQDGTSGKLKIDDDKLTKVLKDNTAAARELLVGDGKETGITTKIATEVKSYLADDGIIDNAQDNVNATLKSLTKQYLSVSNSIDETVARYKAQFTQLDTMMSKLNNTSSYLTQQFTAMNKS", "values": [{"measurement": "stoichiometry N", "setting": "cryo-EM structure [4]", "result": 5}]}, {"molecule": "FliD^2C (A91C/A168C) (natural protein) MASISSLGVGSNLPLDQLLTDLTKNEKGRLTPITKQQSANSAKLTAYGTLKSALEKFQTANTALNKADLFKSTVASSTTEDLKVSTTAGACAGTYKINVTQLAAAQSLATKTTFATTKEQLGDTSVTSRTIKIEQPGRKEPLEIKLDKGDTSMEAIRDAINDADSGICASIVKVKENEFQLVLTANSGTDNTMKITVEGDTKLNDLLAYDSTTNTGNMQELVKAENAKLNVNGIDIERQSNTVTDAPQGITLTLTKKVTDATVTVTKDDTKAKEAIKSWVDAYNSLVDTFSSLTKYTAVEPGEEASDKNGALLGDSVVRTIQTGIRAQFANSGSNSAFKTMAEIGITQDGTSGKLKIDDDKLTKVLKDNTAAARELLVGDGKETGITTKIATEVKSYLADDGIIDNAQDNVNATLKSLTKQYLSVSNSIDETVARYKAQFTQLDTMMSKLNNTSSYLTQQFTAMNKS", "values": [{"measurement": "stoichiometry N", "setting": "cross-linking", "result": 5}]}, {"molecule": "FliD d0 domain truncation construct (FliD^d1d2d3, residues from 44 to 411) (domain or fragment) LTAYGTLKSALEKFQTANTALNKADLFKSTVASSTTEDLKVSTTAGAAAGTYKINVTQLAAAQSLATKTTFATTKEQLGDTSVTSRTIKIEQPGRKEPLEIKLDKGDTSMEAIRDAINDADSGIAASIVKVKENEFQLVLTANSGTDNTMKITVEGDTKLNDLLAYDSTTNTGNMQELVKAENAKLNVNGIDIERQSNTVTDAPQGITLTLTKKVTDATVTVTKDDTKAKEAIKSWVDAYNSLVDTFSSLTKYTAVEPGEEASDKNGALLGDSVVRTIQTGIRAQFANSGSNSAFKTMAEIGITQDGTSGKLKIDDDKLTKVLKDNTAAARELLVGDGKETGITTKIATEVKSYLADDGIIDNAQDNV", "values": [{"measurement": "stoichiometry N", "setting": "cryo-EM structure [5]", "result": 5}]}, {"molecule": "FliC D1D2D3 (residues 45-455), as in the FliD-FliC fusion (domain or fragment) AAGQAIANRFTANIKGLTQASRNANDGISIAQTTEGALNEINNNLQRVRELAVQSANSTNSQSDLDSIQAEITQRLNEIDRVSGQTQFNGVKVLAQDNTLTIQVGANDGETIDIDLKQINSQTLGLDTLNVQQKYKVSDTAATVTGYADTTIALDNSTFKASATGLGGTDQKIDGDLKFDDTTGKYYAKVTVTGGTGKDGYYEVSVDKTNGEVTLAGGATSPLTGGLPATATEDVKNVQVANADLTEAKAALTAAGVTGTASVVKMSYTDNNGKTIDGGLAVKVGDDYYSATQNKDGSISINTTKYTADDGTSKTALNKLGGADGKTEVVSIGGKTYAASKAEGHNFKAQPDLAEAAATTTENPLQKIDAALAQVDTLRSDLGAVQNRFNSAITNLGNTVNNLTSARSRIE", "values": [{"measurement": "stoichiometry N", "setting": "[6]", "result": 1}]}, {"molecule": "FlgL, hook-filament junction protein (unlabeled, for NMR titration) (natural protein) MRISTQMMYEQNMSGITNSQAEWMKLGEQMSTGKRVTNPSDDPIAASQAVVLSQAQAQNSQYALARTFATQKVSLEESVLSQVTTAIQTAQEKIVYAGNGTLSDDDRASLATDLQGIRDQLMNLANSTDGNGRYIFAGYKTEAAPFDQATGGYHGGEKSVTQQVDSARTMVIGHTGAQIFNSITSNAVPEPDGSDSEKNLFVMLDTAIAALKTPVEGNNVEKEKAAAAIDKTNRGLKNSLNNVLTVRAELGTQLSELSTLDSLGSDRALGQKLQMSNLVDVDWNSVISSYVMQQAALQASYKTFTDMQGMSLFQLNR", "values": [{"measurement": "Kd", "setting": "[7]", "result": 100, "unit": "µM"}]}, {"molecule": "native FlgL of the hook-filament junction tip (natural protein) MRISTQMMYEQNMSGITNSQAEWMKLGEQMSTGKRVTNPSDDPIAASQAVVLSQAQAQNSQYALARTFATQKVSLEESVLSQVTTAIQTAQEKIVYAGNGTLSDDDRASLATDLQGIRDQLMNLANSTDGNGRYIFAGYKTEAAPFDQATGGYHGGEKSVTQQVDSARTMVIGHTGAQIFNSITSNAVPEPDGSDSEKNLFVMLDTAIAALKTPVEGNNVEKEKAAAAIDKTNRGLKNSLNNVLTVRAELGTQLSELSTLDSLGSDRALGQKLQMSNLVDVDWNSVISSYVMQQAALQASYKTFTDMQGMSLFQLNR", "values": [{"measurement": "stoichiometry N", "setting": "cryo-EM structure [4]", "result": 11}]}]}
